# Assay results reported in patent publication US9289490B2, “Combinations and uses thereof” (MORPHOSYS AG, priority 2010, dated 2016).
# Values joined by “and” are separate entries in the source; they are usually repeats but may differ in a detail not shown here. Equal values may be shown once. Read-outs that look alike come from different tables or passages of the source. Marks after values point to notes of the source that are not given here.
# Tests used:
# NCI-H929 MM cells = assay: NCI-H929 bone lysis SCID mouse model, MOR202 and BOR (MicroCT); type: in vivo, SCID mice; set-up: Trabecular Bone Volume (Tb · BV), individual mouse / Trabecular Bone Volume (Tb · BV), Average: unit not given here
# Description: 63 SCID mice were inoculated on Day (−7) intra-tibially with 2.5×10^6 NCI-H929 MM cells in order to induce bone lysis. Bortezomib (Groups A and AB) and Vehicle Control (Group C) treatments started on Day (−1). MOR202 treatments (Groups B and AB) started on Day 0. Treatment continued for 6 weeks.
# MicroCT Scan was used to assess bone lysis and included a 3-dimensional analysis comprising Total Bone Volume (TBV), Trabecular Bone Volume (Tb.BV), Trabecular Pattern Factor (Tb.Pf) and Structure Model Index (SMI). Table 10 above defines each of these parameters.
# RAMOS cells [1] = assay: RAMOS non-Hodgkin tumor SCID mouse survival model, MOR202 and lenalidomide; type: in vivo, SCID mice
# Method: Sixty-eight female SCID mice were pre-treated with Cyclophosphamide (75 mg/kg, i.p., twice daily) for two days prior to RAMOS cell inoculation (Day −5 and −4). On the day of inoculation (Day −3), all mice were inoculated with 1×10^6 RAMOS cells each intravenously into the tail vein. Sixty-four of the mice were randomised by body weight into eight groups of eight.
# The study continued for 98 days and the measured endpoint was survival.
# RAMOS cells [2] = details: BOR 0.6 mg/kg i.p., MOR202 1 mg/kg i.v.
# Method: Fifty-five female SCID mice were pre-treated with Cyclophosphamide (75 mg/kg, i.p., twice daily) for two days prior to RAMOS cell inoculation (Day −5 and −4). On the day of inoculation (Day −3), all fifty-five mice were inoculated with 1×10^6 RAMOS cells each (in 100 μL) intravenously into the tail vein. Forty-eight of the mice were randomised by body weight into six groups of eight.
# AMO-1 cells = assay: ADCC with human PBMCs, flow cytometry (CalceinAM/PI); type: cell-based
# Method: For Tables 3b-c, “Theoretical Combination” represents the addition of the values of MOR202 alone and the values of LEN alone. The normalized data of Table 3b is calculated as follows. Therefore, the specific killing values of Table 3b are calculated by subtracting the values of the controls. Then the specific killing values are compared to the MOR202 group, which is set as 1.
# The constant m determines the shape of the dose-effect curve. We used Excel Fit software to carry out a linear regression calculation to estimate the parameters m and D50.
# The CI-isobol method provides a quantitative assessment of synergism between drugs. A combination index (CI) is estimated from dose-effect data of single and combined drug treatments. […] Formally, the combination index (CI) of a combined drug treatment is defined as CI=D1/Dx1+D2/Dx2
# The data is analysed in the following way: Antagonistic(AB)/C<(A/C)×(B/C) Additive(AB)/C=(A/C)×(B/C) Synergistic(AB)/C>(A/C)×(B/C) where A is the treatment with LEN alone; B is the treatment with MOR202 alone; C is response to the treatment vehicle; AB is combination of treatments A and B.
# NCI-H929 cells = assay: as above; details: LEN 5 μM
# [3] = system: NCI-H929 human multiple myeloma cells; assay: NCI-H929 bone lysis SCID mouse MM model, MOR202 and LEN (MicroCT); type: in vivo, SCID mice; set-up: Trabecular Bone Volume (Tb · BV), individual mouse / Trabecular Bone Volume (Tb · BV), Mean: unit not given here
# Method: 63 SCID mice were inoculated on Day (−7) orthotopically into the right tibia with 2.5×10^6 NCI-H929 MM cells (in 5 μL) in order to induce bone lysis. Lenalidomide (Groups A and D) and Vehicle Control (Group C) treatments started on Day (−1). MOR202 treatments (Groups B and D) started on Day 0. Treatment continued for 6 weeks.
# MicroCT Scan was used to assess bone lysis and included […] analysis comprising Total Bone Volume (TBV), Trabecular Bone Volume (Tb.BV), Trabecular Pattern Factor (Tb.Pf) and Structure Model Index (SMI). Table 10 defines each of these parameters.
# [4] = Bortezomib 0.6 mg/kg i.p. twice per week, MOR202 3 mg/kg i.p. three times per week, 6 weeks, lower = less bone lysis
# [5] = group average of 10 mice, Bortezomib 0.6 mg/kg i.p., MOR202 3 mg/kg i.p., 6 weeks
# [6] = LEN 50 mg/kg p.o. once daily, MOR202 3 mg/kg i.p. 3 times weekly, 6 weeks, lower = less bone lysis, listed as MOR03087
# [7] = group mean of 10 mice, LEN 50 mg/kg p.o., MOR202 3 mg/kg i.p., 6 weeks
molecule,measurement,setting,value
"MOR202: anti-CD38 antibody whose amino acid sequence is provided in FIG. 11; IgG1 (antibody, V domains shown) VH: QVQLVESGGGLVQPGGSLRLSCAASGFTFSSYYMNWVRQAPGKGLEWVSGISGDPSNTYYADSVKGRFTISRDNSKNTLYLQMNSLRAEDTAVYYCARDLPLVYTGFAYWGQGTLVTVSS VL: DIELTQPPSVSVAPGQTARISCSGDNLRHYYVYWYQQKPGQAPVLVIYGDSKRPSGIPERFSGSNSGNTATLTISGTQAEDEADYYCQTYTGGASLVFGGGTKLTVLGQ","Structure Model Index (SMI), individual mouse",NCI-H929 MM cells; [4],2.546 and 2.079 and 2.296 and 2.429 and 1.871 and 2.193 and 2.368 (2×) and 2.436 and 2.511
same,"Trabecular Pattern Factor (Tb · Pf), individual mouse",NCI-H929 MM cells; [4],27.363 mm^−1 and 19.479 mm^−1 and 21.858 mm^−1 and 23.814 mm^−1 and 16.347 mm^−1 and 19.748 mm^−1 and 25.212 mm^−1 and 21.276 mm^−1 and 24.031 mm^−1 and 25.056 mm^−1
same,"Structure Model Index (SMI), Average",NCI-H929 MM cells; [5],2.31
same,"Total Bone Volume (TBV), Average",NCI-H929 MM cells; [5],1.988 mm^3
same,"Trabecular Bone Volume (Tb · BV), Average",NCI-H929 MM cells; [5],0.296
same,"Trabecular Pattern Factor (Tb · Pf), Average",NCI-H929 MM cells; [5],22.418 mm^−1
same,Reduction of bone lysis compared to vehicle control,"NCI-H929 MM cells; non-inoculated tibia = 0%, vehicle = 100% bone lysis, MOR202 alone 12 mg/kg, BOR alone 0.6 mg/kg, combination 3 mg/kg MOR202 and 0.6 mg/kg BOR",up to 55%
same,Number of mice alive at study termination (day 98),"RAMOS cells [1]; LEN 100 mg/kg (Table 14) p.o., MOR202 1 mg/kg i.v.",0/8
same,Day of death (post-inoculation) Mean,"RAMOS cells [1]; LEN 100 mg/kg (Table 14) p.o., MOR202 1 mg/kg i.v. twice weekly, study 98 days",49.6 days
same,% ILS (based on median death day),"RAMOS cells [1]; LEN 100 mg/kg (Table 14) p.o., MOR202 1 mg/kg i.v., vs vehicle control",155%
same,Day of death (post-inoculation) Median,"RAMOS cells [1]; LEN 100 mg/kg (Table 14; Table 13: 50 mg/kg) p.o. once daily, MOR202 1 mg/kg i.v. twice weekly, study 98 days",51 days
same,Number of mice alive at study termination (day 98),RAMOS cells [2],0/8
same,Day of death (post-inoculation) Mean,RAMOS cells [2]; study 98 days,43.6 days
same,Day of death (post-inoculation) Median,RAMOS cells [2]; study 98 days,43.5 days
same,% ILS (based on median death day),RAMOS cells [2]; vs vehicle control,112%
same,"Normalized specific killing, MOR202 treatment group set as 1 (Table 3b)","AMO-1 cells; PBMCs and AMO-1 cells treated with LEN, LEN 10 μM, MOR202 and MOR03207 15 μg/ml, controls subtracted, Exp. 1-3",1.0
same,"Normalized specific killing, theoretical combination set as 1 (Table 3c)","AMO-1 cells; PBMCs and AMO-1 cells treated with LEN, MOR202 0.42 μg/ml, LEN 5 μM, Experiment 1-3",0.9 and 0.6
same,"Normalized specific killing, theoretical combination set as 1, AVERAGE (Table 3c)","AMO-1 cells; PBMCs and AMO-1 cells treated with LEN, MOR202 0.42 μg/ml, LEN 5 μM, average of 3 experiments",0.8
same,"Normalized specific killing, MOR202 treatment group set as 1 (Table 4b)","AMO-1 cells; only effector cells treated with LEN, LEN 10 μM, MOR202 and MOR03207 15 μg/ml, Exp. 1-3",1.0
same,"Normalized specific killing, theoretical combination set as 1 (Table 4c)","AMO-1 cells; only effector cells treated with LEN, MOR202 0.42 μg/ml, LEN 5 μM, Experiment 1-3",0.8 and 1.2 and 0.7
same,"Normalized specific killing, theoretical combination set as 1, AVERAGE (Table 4c)","AMO-1 cells; only effector cells treated with LEN, MOR202 0.42 μg/ml, LEN 5 μM, average of 3 experiments",0.9
same,"% dead cells (raw data, Table 7a), Exp. 2 and 3","NCI-H929 cells; PBMCs and NCI-H929 cells treated with LEN before MOR202, MOR202 0.07 μg/ml, MOR03207 15 μg/ml",32.54 % dead cells and 43.08 % dead cells
same,"% dead cells (raw data, Table 7a), Exp. 1","NCI-H929 cells; PBMCs and NCI-H929 cells treated with LEN before MOR202, MOR202 0.2 μg/ml (*), MOR03207 15 μg/ml",30.64* % dead cells
same,"Normalized specific killing, fractional product combination set as 1 (Table 7b), Exp. 2 and 3","NCI-H929 cells; PBMCs and NCI-H929 cells treated with LEN, MOR202 0.07 μg/ml",0.45 and 0.58
same,"Normalized specific killing, fractional product combination set as 1 (Table 7b), Exp. 1","NCI-H929 cells; PBMCs and NCI-H929 cells treated with LEN, MOR202 0.2 μg/ml (*)",0.42*
same,"Normalized specific killing, AVERAGE (Table 7b)","NCI-H929 cells; PBMCs and NCI-H929 cells treated with LEN, MOR202 0.2 or 0.07 μg/ml, average of 3 experiments",0.48
same,"% dead cells (raw data, Table 8a), Exp. 2 and 3","NCI-H929 cells; only effector cells treated with LEN before MOR202, MOR202 0.07 μg/ml, MOR03207 15 μg/ml",53.74 % dead cells and 47.00 % dead cells
same,"% dead cells (raw data, Table 8a), Exp. 1","NCI-H929 cells; only effector cells treated with LEN before MOR202, MOR202 0.2 μg/ml (*), MOR03207 15 μg/ml",26.60* % dead cells
same,"Normalized specific killing, fractional product combination set as 1 (Table 8b), Exp. 2 and 3","NCI-H929 cells; only effector cells treated with LEN, MOR202 0.07 μg/ml",0.97 and 0.91
same,"Normalized specific killing, fractional product combination set as 1 (Table 8b), Exp. 1","NCI-H929 cells; only effector cells treated with LEN, MOR202 0.2 μg/ml (*)",1.09*
same,"Normalized specific killing, AVERAGE (Table 8b)","NCI-H929 cells; only effector cells treated with LEN, MOR202 0.2 or 0.07 μg/ml, average of 3 experiments",0.99
same,"Structure Model Index (SMI), individual mouse",[3]; [6],2.386 and 1.818 and 2.423 and 2.450 and 1.860 and 2.461 and 2.558 and 2.247 and 2.318 and 2.275
same,"Trabecular Pattern Factor (Tb · Pf), individual mouse",[3]; [6],27.049 mm^−1 and 15.631 mm^−1 and 27.631 mm^−1 and 27.523 mm^−1 and 17.887 mm^−1 and 21.405 mm^−1 and 26.345 mm^−1 and 20.327 mm^−1 and 25.843 mm^−1 and 22.402 mm^−1
same,"Structure Model Index (SMI), Mean",[3]; [7],2.28
same,"Total Bone Volume (TBV), Mean",[3]; [7],2.467 mm^3
same,"Trabecular Bone Volume (Tb · BV), Mean",[3]; [7],0.323
same,"Trabecular Pattern Factor (Tb · Pf), Mean",[3]; [7],23.204 mm^−1
same,"Structure Model Index (SMI), Mean","[3]; group mean of 10 mice, LEN 50 mg/kg p.o., MOR202 3 mg/kg i.p., 6 weeks, listed as MOR03087",2.280
same,Reduction of bone lysis compared to vehicle control,"[3]; non-inoculated tibia = 0%, vehicle = 100% bone lysis, MOR202 alone 12 mg/kg, LEN alone 50 mg/kg, combination 3 mg/kg MOR202 and 50 mg/kg LEN",up to 55%
